Measurements: article PMC4608766, “The Roles of Arabidopsis CDF2 in Transcriptional and Posttranscriptional Regulation of Primary MicroRNAs” (PLoS Genetics, 2015)

T1: GST-CDF2 (Arabidopsis, UniProt Q93ZL5 1-457)
T1 construct: cycling DOF factor 2 (CDF2), Arabidopsis
T1 sequence (looked up): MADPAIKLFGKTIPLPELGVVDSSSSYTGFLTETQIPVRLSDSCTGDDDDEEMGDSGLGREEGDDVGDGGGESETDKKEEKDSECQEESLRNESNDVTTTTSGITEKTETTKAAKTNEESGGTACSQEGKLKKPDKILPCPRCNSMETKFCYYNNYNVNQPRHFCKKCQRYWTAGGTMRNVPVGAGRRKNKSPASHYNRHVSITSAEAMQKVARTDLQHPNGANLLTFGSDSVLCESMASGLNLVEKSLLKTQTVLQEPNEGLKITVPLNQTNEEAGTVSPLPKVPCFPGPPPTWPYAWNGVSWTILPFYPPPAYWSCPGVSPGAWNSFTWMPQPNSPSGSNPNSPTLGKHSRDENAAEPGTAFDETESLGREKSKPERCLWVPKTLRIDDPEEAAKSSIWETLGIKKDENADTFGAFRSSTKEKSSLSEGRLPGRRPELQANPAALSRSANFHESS

T2: MBP-CDF2 (Arabidopsis, UniProt Q93ZL5 1-457)
T2 construct: cycling DOF factor 2 (CDF2), Arabidopsis; source: E. coli BL21 (DE3), purified (New England Biolabs protocol)
T2 sequence (looked up): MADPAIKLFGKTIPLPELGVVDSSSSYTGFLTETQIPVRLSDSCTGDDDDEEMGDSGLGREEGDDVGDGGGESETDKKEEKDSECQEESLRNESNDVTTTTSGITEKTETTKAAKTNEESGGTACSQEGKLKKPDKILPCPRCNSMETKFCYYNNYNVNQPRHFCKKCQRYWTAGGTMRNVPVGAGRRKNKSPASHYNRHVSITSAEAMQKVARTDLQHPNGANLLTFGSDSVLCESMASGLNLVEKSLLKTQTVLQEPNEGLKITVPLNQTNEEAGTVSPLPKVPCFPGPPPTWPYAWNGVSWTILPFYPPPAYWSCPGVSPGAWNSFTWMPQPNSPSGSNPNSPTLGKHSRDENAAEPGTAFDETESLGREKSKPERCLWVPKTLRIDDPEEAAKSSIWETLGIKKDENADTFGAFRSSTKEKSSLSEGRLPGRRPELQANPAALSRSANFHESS


How the values were obtained:
GST-CDF2 = biological target: T1, GST-CDF2; test: pull-down; GST pull-down: GST-CDF2 (or GST) on glutathione beads, MBP-DCL1-RBD added; 40 mM HEPES-KOH pH 7.5, 10 mM KCl, 3 mM MgCl2, 0.4 M sucrose, 1 mM EDTA, 1 mM DTT, 0.2% Triton X-100; 4 C, 1 h; immunoblot; details: both partners purified
MBP-CDF2 = biological target: T2, MBP-CDF2; test: pull-down; MBP pull-down: MBP-CDF2 (or MBP) on amylose resin, GST-DCL1-RBD added; 40 mM HEPES-KOH pH 7.5, 10 mM KCl, 3 mM MgCl2, 0.4 M sucrose, 1 mM EDTA, 1 mM DTT, 0.2% Triton X-100; 4 C, 1 h; immunoblot; details: both partners purified

binding result (GST-CDF2) | binding result (MBP-CDF2) | Binder
binds |  | MBP-DCL1-RBD (domain or fragment, Arabidopsis, UniProt Q9SP32 1733-1909, looked up, Dicer-like 1 (DCL1), Arabidopsis, the two C-terminal dsRBDs (DCL1-RBD, defined as aa 1733-1910); The limits are those printed where the name DCL1-RBD is defined; the methods of the pull-down give none; source: E. coli BL21 (DE3), purified (New England Biolabs protocol)) HPVRELQERCQQQAEGLEYKASRSGNTATVEVFIDGVQVGVAQNPQKKMAQKLAARNALAALKEKEIAESKEKHINNGNAGEDQGENENGNKKNGHQPFTRQTLNDICLRKNWPMPSYRCVKEGGPAHAKRFTFGVRVNTSDRGWTDECIGEPMPSVKKAKDSAAVLLLELLNKTFS
 | binds | GST-DCL1-RBD (domain or fragment, Arabidopsis, UniProt Q9SP32 1733-1909, looked up, Dicer-like 1 (DCL1), Arabidopsis, the two C-terminal dsRBDs (DCL1-RBD, defined as aa 1733-1910); The limits are those printed where the name DCL1-RBD is defined; the methods of the pull-down give none) HPVRELQERCQQQAEGLEYKASRSGNTATVEVFIDGVQVGVAQNPQKKMAQKLAARNALAALKEKEIAESKEKHINNGNAGEDQGENENGNKKNGHQPFTRQTLNDICLRKNWPMPSYRCVKEGGPAHAKRFTFGVRVNTSDRGWTDECIGEPMPSVKKAKDSAAVLLLELLNKTFS
